Laboratory results reported in US20020098523A1 (CAMBRIDGE ANTIBODY TECHNOLOGY, published 2002).

B1: Mouse eotaxin (ligand, UniProt P48298 24-97, looked up)
chain: HPGSIPTSCCFIMTSKKIPNTLLKSYKRITNNRCTLKAIVFKTRLGKEICADPKKKWVQDATKHLDQKLQTPKP
notes: also called murine eotaxin

Assays:
[1] = molecular target: T1, CAT-212; test: Flash Plate scintillation competition: unlabelled mouse eotaxin against [125I]eotaxin for coated CAT-212; mean of two estimates
T1 construct: Human scFv; IMAC-purified soluble scFv in the Western blot and Flash Plate assays; FPLC-purified monomeric scFv in the chemotaxis assay
Procedure: Flash Plate™ was prepared as described in Example 6. Eleven serial one in three dilutions of unlabelled human and mouse Eotaxin (R&D) in Assay Buffer and mixed with ¹²⁵I-Eotaxin prepared at an estimated concentration of 30 pM and 100 μl added to the wells in duplicate. The plate was sealed and incubated at room temperature for two hours, counted and the data processed as described in Example 6.

[2] = molecular target: T2, Human eotaxin (human, UniProt P51671 24-97, 125-iodine label in the Flash Plate assays; site not given); test: cell-based or functional assay
[3] = molecular target: B1; test: cell-based or functional assay
[4] = molecular target: Rhesus monkey eotaxin (rhesus monkey, UniProt Q8MIT7 24-97, limits assumed); test: cell-based or functional assay
[5] = molecular target: T2, Human eotaxin; test: Flash Plate scintillation competition: soluble CAT-213 against coated CAT-212 (competitor) for [125I]eotaxin; mean of 4 estimates
Procedure: The Flash Plate assay was performed essentially as described in Example 6.

Rhesus monkey eotaxin, sequence (Q8MIT7 24-97 limits assumed): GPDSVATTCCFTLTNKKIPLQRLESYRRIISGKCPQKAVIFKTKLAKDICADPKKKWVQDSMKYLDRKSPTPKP

IC50 [1]	IC50, inhibition of eotaxin-mediated chemotaxis of CCR3-transfected L1.2 cells [2]	geometric mean IC50, inhibition of eotaxin-evoked shape change of human eosinophils [2]	geometric mean IC50, inhibition of eotaxin-mediated chemotaxis of human eosinophils [2]	geometric mean IC50, inhibition of mouse eotaxin-mediated chemotaxis of L1.2-CCR3 cells [3]	geometric mean IC50, inhibition of rhesus monkey eotaxin-mediated chemotaxis of L1.2-CCR3 cells [4]	IC50 [5]	Binder
296 nM							B1
	0.7 nM	0.714 nM	1.53 nM	2630 nM	303 nM	0.0593 nM	CAT-213 (antibody, V domains shown, Expressed in NS0 cells and purified on Protein A) VH: QVQLVQSGGGVVQPGRSLRLSCAASGFTFSSYGMHWVRQAPGKGLEWVAVISYDGSIKHYADSVKGRFTISRDNSKNTLYLQMNSLRTDDTAVYYCAGDTDYGDIDPWGQGTMVTVSS VL: DIQMTQSPSSVSASVGDRVTITCRASQDISSWLAWYQQKPGKAPKLLIYAASSLQSGVPSRFSGSGSGTDFTLTISSLQPEDFATYYCQQASSFPSITFGQGTRLEIKR
